As a reminder, the koff is a measure of how fast the partners let go of each other. In general, Kd refers to the equilibrium constant for the complex coming apart.

Data on six molecules can be found in article PMC10457294 (2023).

Holding throughout (experiment): BLI
Background: In BLI a coated tip is dipped into the sample, and binding shifts an interference pattern.

Assay [1] concerns the target T1, MPXV M2 (monkeypox virus M2 protein), His-tagged, wild type (monkeypox virus (Clade I), UniProt Q8V554 18-220).
For assay [2], the target named is MPXV Bio-M2 (site-specifically biotinylated MPXV Avi-M2) (monkeypox virus (Clade I), UniProt Q8V554 18-220).
Assay [3] concerns the target T2, CPXV M2 (cowpox virus M2), recombinant, His-tagged (cowpox virus, UniProt Q8QN22 18-220).
T2 chain: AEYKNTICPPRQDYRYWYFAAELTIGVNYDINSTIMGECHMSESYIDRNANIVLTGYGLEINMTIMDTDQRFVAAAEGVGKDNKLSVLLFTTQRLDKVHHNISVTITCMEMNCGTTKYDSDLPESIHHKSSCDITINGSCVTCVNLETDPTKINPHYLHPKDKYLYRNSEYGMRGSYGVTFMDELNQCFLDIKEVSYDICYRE

In assay [4] the target is T1, MPXV M2 (monkeypox virus M2 protein), …. The source holds these as a separate data set.
The target of assay [5] is T2, CPXV M2 (cowpox virus M2), recombinant, ….

B1: human B7.1 ectodomain fused to human Fc (Fc fusion)
chain: VIHVTKEVKEVATLSCGHNVSVEELAQTRIYWQKEKKMVLTMMSGDMNIWPEYKNRTIFDITNNLSIVILALRPSDEGTYECVVLKYEKDAFKREHLAEVTLSVKADFPTPSISDFEIPTSNIRRIICSTSGGFPEPHLSWLENGEELNAINTTVSQDPETELYAVSSKLDFNMTTNHSFMCLIKYGHLRVNQTFNWNTT
B1 displayed an off-rate (koff) in assay [1] of 2.91e-05 s⁻¹.

B2: human B7.1 ectodomain, His-tagged (domain or fragment)
chain: B1 chain
With B2, in assay [2], the off-rate (koff) was found to be 0.00676 s⁻¹.

B3: mouse B7.1 ectodomain fused to human Fc (Fc fusion)
chain: VDEQLSKSVKDKVLLPCRYNSPHEDESEDRIYWQKHDKVVLSVIAGKLKVWPEYKNRTLYDNTTYSLIILGLVLSDRGTYSCVVQKKERGTYEVKHLALVKLSIKADFSTPNITESGNPSADTKRITCFASGGFPKPRFSWLENGRELPGINTTISQDPESELYTISSQLDFNTTRNHTIKCLIKYGDAHVSEDFTWEKPPEDPPDSK
In the case of B3, the koff came out at 2.92e-05 s⁻¹ in assay [1] and 0.000109 s⁻¹ in assay [3]. The equilibrium dissociation constant (Kd) in assay [4] stood at 0.243 nM; in assay [5], 1.48 nM.

B4: human B7.2 ectodomain, His-tagged (domain or fragment)
chain: LKIQAYFNETADLPCQFANSQNQSLSELVVFWQDQENLVLNEVYLGKEKFDSVHSKYMGRTSFDSDSWTLRLHNLQIKDKGLYQCIIHHKKPTGMIRIHQMNSELSVLANFSQPEIVPISNITENVYINLTCSSIHGYPEPKKMSVLLRTKNSTIEYDGVMQKSQDNVTELYDVSISLSVSFPDVTSNMTIFCILETDKTRLLSSPFSIELED
For B4, the koff in assay [2] was 0.0334 s⁻¹.

B5: human B7.2 ectodomain fused to human Fc (Fc fusion)
chain: B4 chain
The molecule B5 displayed an off-rate (koff) in assay [1] of 9.75e-06 s⁻¹.

B6: mouse B7.2 ectodomain fused to human Fc (Fc fusion)
chain: VSVETQAYFNGTAYLPCPFTKAQNISLSELVVFWQDQQKLVLYEHYLGTEKLDSVNAKYLGRTSFDRNNWTLRLHNVQIKDMGSYDCFIQKKPPTGSIILQQTLTELSVIANFSEPEIKLAQNVTGNSGINLTCTSKQGHPKPKKMYFLITNSTNEYGDNMQISQDNVTELFSISNSLSLSFPDGVWHMTVVCVLETESMKISSKPLNFTQEFPSPQTYWKE
B6: the results for the koff in assay [1] and in assay [3] were 0.689 s⁻¹ and 0.000363 s⁻¹, respectively. Also, the dissociation constant Kd in assay [4] came to 13600 nM; in assay [5], 8 nM.
